# Experimental data reported in publication PMC5268438, “Crystal Structure and Functional Characterization of an Esterase (EaEST) from Exiguobacterium antarcticum” (PLoS ONE, 2017).
# Legend:
# [1] = target: esterase (EaEST) from Exiguobacterium antarcticum B7 (Exiguobacterium antarcticum B7); assay: AUC; sedimentation velocity, 20°C, 2 mg/ml EaEST in 25 mM Tris-HCl pH 8.0, 200 mM NaCl, 5 mM MgCl2, 2 mM DTT; 45,000 rpm; c(s) with SEDFIT
# EaEST = target: T1, EaEST (Exiguobacterium antarcticum, UniProt A0ABF7PFX0); assay: X-ray crystal structure, […] Å; assay type: binding; settings: crystals from 0.2 M ammonium acetate, pH 7.5, no ligand added; active site, ligand assigned from electron density
# T1 construct: gene Eab7_1456; recombinant from pET-21a in E. coli BL21(DE3), purified on His-Trap Ni-NTA, no tag removal told; two protomers in the asymmetric unit (542 residues modelled); catalytic triad Ser96, Asp220, His248
# T1 sequence (A0ABF7PFX0 1-272): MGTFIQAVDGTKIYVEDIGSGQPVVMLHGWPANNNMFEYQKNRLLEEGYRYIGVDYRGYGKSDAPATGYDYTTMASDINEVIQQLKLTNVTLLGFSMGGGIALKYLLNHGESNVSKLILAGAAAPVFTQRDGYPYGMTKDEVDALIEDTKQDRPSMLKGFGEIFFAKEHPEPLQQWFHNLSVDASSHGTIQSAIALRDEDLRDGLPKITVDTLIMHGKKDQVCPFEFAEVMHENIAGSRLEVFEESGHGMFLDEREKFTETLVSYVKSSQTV
stoichiometry N [1],Molecule,"X-ray crystal structure, 1.90 Å (EaEST)"
3,esterase (EaEST) from Exiguobacterium antarcticum B7 (enzyme),–
–,CC(=O)OO [peracetate],the peracetate molecule was perfectly fitted into the electron-density map
